Positions count from the first letter of the chain named.
T1: EsCas13d, nuclease-dead (Eubacterium siraeum, UniProt B0MS50, R295A;H300A;R849A;H854A)
T1 sequence: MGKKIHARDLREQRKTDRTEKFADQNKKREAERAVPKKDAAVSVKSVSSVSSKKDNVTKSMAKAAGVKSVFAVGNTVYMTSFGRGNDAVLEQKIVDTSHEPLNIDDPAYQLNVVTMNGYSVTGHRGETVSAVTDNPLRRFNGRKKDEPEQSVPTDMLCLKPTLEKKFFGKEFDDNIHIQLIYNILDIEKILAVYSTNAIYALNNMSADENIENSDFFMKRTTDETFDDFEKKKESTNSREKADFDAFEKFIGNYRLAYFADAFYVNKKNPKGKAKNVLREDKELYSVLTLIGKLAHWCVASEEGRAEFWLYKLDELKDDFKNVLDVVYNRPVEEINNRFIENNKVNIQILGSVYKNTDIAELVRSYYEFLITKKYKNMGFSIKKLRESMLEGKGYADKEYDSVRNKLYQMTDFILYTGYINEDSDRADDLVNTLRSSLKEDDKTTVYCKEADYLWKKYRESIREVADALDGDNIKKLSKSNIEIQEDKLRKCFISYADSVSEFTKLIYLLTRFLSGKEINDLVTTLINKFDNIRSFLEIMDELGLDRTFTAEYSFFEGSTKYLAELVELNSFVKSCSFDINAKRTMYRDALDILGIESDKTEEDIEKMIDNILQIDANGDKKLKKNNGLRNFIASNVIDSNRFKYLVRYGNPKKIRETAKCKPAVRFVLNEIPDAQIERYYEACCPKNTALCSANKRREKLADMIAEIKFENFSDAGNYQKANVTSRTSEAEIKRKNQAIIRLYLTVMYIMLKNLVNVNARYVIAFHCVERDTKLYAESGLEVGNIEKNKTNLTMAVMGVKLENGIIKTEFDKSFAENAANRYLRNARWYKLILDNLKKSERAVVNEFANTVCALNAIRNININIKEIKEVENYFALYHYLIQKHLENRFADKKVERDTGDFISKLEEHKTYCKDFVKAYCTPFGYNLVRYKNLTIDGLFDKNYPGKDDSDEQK

B1: target 1 insC 3' of 9,insA 3' of 2 (mixed)
RNA 1: CACCCGUGCAAAAAUGCAGGGGUCUAAAACUGAGCGGAUAACCUCUCUAUGG
RNA 2: GGGAAUGGAUCCACAUCUACGAAUUCGUACCAUAGAGAGGUUACUCCGCUCAACCGAGAUCGGAAGAGCACACGU
B2: target 1 insC 3' of 9,insC 3' of 1 (mixed)
RNA 1: B1 RNA 1
RNA 2: B1 RNA 2 with A53C
B3: target 2 MT 5'PFS GAG 3'PFS CCU (mixed)
RNA 1: CACCCGUGCAAAAUUGCAGGGGUCUAAAACCUUCUCCAAAUUGUUUCAUCCU
RNA 2: GGGAAUGGAUCCACAUCUACGAAUUCGAGAGGAUGAAACAAUUUGGAGAAGCCUAGAUCGGAAGAGCACACGU
B4: target 2 MT 5'PFS AGA 3'PFS CCG (mixed)
RNA 1: B3 RNA 1
RNA 2: B3 RNA 2 with G27A, A28G, G29A, U54G
B5: target 2 MT 5'PFS AGU 3'PFS AAU (mixed)
RNA 1: B3 RNA 1
RNA 2: B3 RNA 2 with G27A, A28G, G29U, C52A, C53A
B6: target 2 MT 5'PFS AGG 3'PFS UAA (mixed)
RNA 1: B3 RNA 1
RNA 2: B3 RNA 2 with G27A, A28G, C52U, C53A, U54A
B7: target 2 MT 5'PFS GAC 3'PFS UUA (mixed)
RNA 1: B3 RNA 1
RNA 2: B3 RNA 2 with G29C, C52U, C53U, U54A
B8: target 2 MT 5'PFS UAA 3'PFS UAA (mixed)
RNA 1: B3 RNA 1
RNA 2: B3 RNA 2 with G27U, G29A, C52U, C53A, U54A
B9: target 2 MT 5'PFS GCC 3'PFS AUA (mixed)
RNA 1: B3 RNA 1
RNA 2: B3 RNA 2 with A28C, G29C, C52A, C53U, U54A
B10: target 2 MT 5'PFS GCC 3'PFS AUG (mixed)
RNA 1: B3 RNA 1
RNA 2: B3 RNA 2 with A28C, G29C, C52A, C53U, U54G
B11: target 2 MT 5'PFS UAA 3'PFS UAC (mixed)
RNA 1: B3 RNA 1
RNA 2: B3 RNA 2 with G27U, G29A, C52U, C53A, U54C
B12: target 2 MT 5'PFS GAC 3'PFS UUG (mixed)
RNA 1: B3 RNA 1
RNA 2: B3 RNA 2 with G29C, C52U, C53U, U54G
B13: target 2 MT 5'PFS GCC 3'PFS AUC (mixed)
RNA 1: B3 RNA 1
RNA 2: B3 RNA 2 with A28C, G29C, C52A, C53U, U54C
B14: target 2 MT 5'PFS AGU 3'PFS AAG (mixed)
RNA 1: B3 RNA 1
RNA 2: B3 RNA 2 with G27A, A28G, G29U, C52A, C53A, U54G
B15: target 2 MT 5'PFS AAA 3'PFS AAA (mixed)
RNA 1: B3 RNA 1
RNA 2: B3 RNA 2 with G27A, G29A, C52A, C53A, U54A
B16: target 2 MT 5'PFS GAC 3'PFS UUC (mixed)
RNA 1: B3 RNA 1
RNA 2: B3 RNA 2 with G29C, C52U, C53U, U54C
B17: target 2 MT 5'PFS AGA 3'PFS CCA (mixed)
RNA 1: B3 RNA 1
RNA 2: B3 RNA 2 with G27A, A28G, G29A, U54A
B18: target 2 MT 5'PFS UAA 3'PFS UAU (mixed)
RNA 1: B3 RNA 1
RNA 2: B3 RNA 2 with G27U, G29A, C52U, C53A

Biological target: T1, EsCas13d, nuclease-dead
Assay: crRNA (strand 1, pre-loaded); Mg2+; 40 mM Tris-HCl pH 7.5, 150 mM NaCl, 6 mM MgCl2, 1 mM DTT, 0.1% Tween-20, 0.2 mg/ml BSA; 25 C; 10 min per concentration, then washed
Details: tags: His6-TwinStrep-SUMO cleaved; N-terminal SNAP kept (SNAP-Surface 488); label: 3' end held by stalled T7 RNA polymerase

Binder	Kd [nM]
B1	12.3 ± 0.7
B2	9.4 ± 0.6
B3	~130
B4	8.3 ± 1.1
B5	7.6 ± 1
B6	4.9 ± 1.1
B7	14.3 ± 3
B8	4.8 ± 1.3
B9	10.4 ± 1.8
B10	12.9 ± 1.1
B11	7.1 ± 1.6
B12	15 ± 4
B13	12.7 ± 1.1
B14	11 ± 2.4
B15	4.9 ± 1.3
B16	33 ± 12
B17	~24
B18	3.7 ± 1
